# B1: Keratin, type II cytoskeletal 6A (Homo sapiens), P02538 (parent)
# chain: MASTSTTIRSHSSSRRGFSANSARLPGVSRSGFSSVSVSRSRGSGGLGGACGGAGFGSRSLYGLGGSKRISIGGGSCAISGGYGSRAGGSYGFGGAGSGFGFGGGAGIGFGLGGGAGLAGGFGGPGFPVCPPGGIQEVTVNQSLLTPLNLQIDPTIQRVRAEEREQIKTLNNKFASFIDKVRFLEQQNKVLETKWTLLQEQGTKTVRQNLEPLFEQYINNLRRQLDSIVGERGRLDSELRGMQDLVEDFKNKYEDEINKRTAAENEFVTLKKDVDAAYMNKVELQAKADTLTDEINFLRALYDAELSQMQTHISDTSVVLSMDNNRNLDLDSIIAEVKAQYEEIAQRSRAEAESWYQTKYEELQVTAGRHGDDLRNTKQEIAEINRMIQRLRSEIDHVKKQCANLQAAIADAEQRGEMALKDAKNKLEGLEDALQKAKQDLARLLKEYQELMNVKLALDVEIATYRKLLEGEECRLNGEGVGQVNISVVQSTVSSGYGGASGVGSGLGLGGGSSYSYGSGLGVGGGFSSSSGRAIGGGLSSVGGGSSTIKYTTTSSSSRKSYKH
# partner: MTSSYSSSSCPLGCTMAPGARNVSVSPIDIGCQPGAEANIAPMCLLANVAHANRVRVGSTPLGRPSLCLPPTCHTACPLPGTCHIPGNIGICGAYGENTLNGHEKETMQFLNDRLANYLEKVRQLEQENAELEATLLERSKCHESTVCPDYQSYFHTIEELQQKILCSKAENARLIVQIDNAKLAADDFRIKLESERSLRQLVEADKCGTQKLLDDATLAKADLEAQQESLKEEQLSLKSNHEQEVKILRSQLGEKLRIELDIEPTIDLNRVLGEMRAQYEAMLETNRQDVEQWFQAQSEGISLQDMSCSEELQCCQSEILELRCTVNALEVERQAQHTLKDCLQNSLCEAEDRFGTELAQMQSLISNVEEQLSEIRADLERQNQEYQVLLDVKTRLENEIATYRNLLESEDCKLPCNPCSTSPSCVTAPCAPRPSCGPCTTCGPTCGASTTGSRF
# B2: Cyclin-dependent kinase 4 inhibitor C (Homo sapiens), P42773 (parent)
# chain: MAEPWGNELASAAARGDLEQLTSLLQNNVNVNAQNGFGRTALQVMKLGNPEIARRLLLRGANPDLKDRTGFAVIHDAARAGFLDTLQTLLEFQADVNIEDNEGNLPLHLAAKEGHLRVVEFLVKHTASNVGHRNHKGDTACDLARLYGRNEVVSLMQANGAGGATNLQ
# B3: Beta-crystallin A4 (Homo sapiens), P53673 (parent)
# chain: MTLQCTKSAGPWKMVVWDEDGFQGRRHEFTAECPSVLELGFETVRSLKVLSGAWVGFEHAGFQGQQYILERGEYPSWDAWGGNTAYPAERLTSFRPAACANHRDSRLTIFEQENFLGKKGELSDDYPSLQAMGWEGNEVGSFHVHSGAWVCSQFPGYRGFQYVLECDHHSGDYKHFREWGSHAPTFQVQSIRRIQQ
# B4: Keratin, type II cytoskeletal 2 epidermal (Homo sapiens), P35908 (parent)
# chain: MSCQISCKSRGRGGGGGGFRGFSSGSAVVSGGSRRSTSSFSCLSRHGGGGGGFGGGGFGSRSLVGLGGTKSISISVAGGGGGFGAAGGFGGRGGGFGGGSSFGGGSGFSGGGFGGGGFGGGRFGGFGGPGGVGGLGGPGGFGPGGYPGGIHEVSVNQSLLQPLNVKVDPEIQNVKAQEREQIKTLNNKFASFIDKVRFLEQQNQVLQTKWELLQQMNVGTRPINLEPIFQGYIDSLKRYLDGLTAERTSQNSELNNMQDLVEDYKKKYEDEINKRTAAENDFVTLKKDVDNAYMIKVELQSKVDLLNQEIEFLKVLYDAEISQIHQSVTDTNVILSMDNSRNLDLDSIIAEVKAQYEEIAQRSKEEAEALYHSKYEELQVTVGRHGDSLKEIKIEISELNRVIQRLQGEIAHVKKQCKNVQDAIADAEQRGEHALKDARNKLNDLEEALQQAKEDLARLLRDYQELMNVKLALDVEIATYRKLLEGEECRMSGDLSSNVTVSVTSSTISSNVASKAAFGGSGGRGSSSGGGYSSGSSSYGSGGRQSGSRGGSGGGGSISGGGYGSGGGSGGRYGSGGGSKGGSISGGGYGSGGGKHSSGGGSRGGSSSGGGYGSGGGGSSSVKGSSGEAFGSSVTFSFR
# partner: B1 partner
# Variants of: B1
# Conditions: with krt38_human KRT38, O76015
row,Variant,effect of a mutation on the interaction
1,A463P,with no effect
2,F174V,with no effect
3,I462S,with no effect

# Variants of: B1
# Conditions: with krt38_human KRT38, O76015
# Remark: another data set of the same source
row,Variant,effect of a mutation on the interaction
1,F249L,with no effect
2,V523F,with no effect
3,T552S,with no effect

# Variants of: B2
# Conditions: with cdk6_human CDK6, Q00534
# Sequence of cdk6_human CDK6, Q00534 (Q00534 whole entry): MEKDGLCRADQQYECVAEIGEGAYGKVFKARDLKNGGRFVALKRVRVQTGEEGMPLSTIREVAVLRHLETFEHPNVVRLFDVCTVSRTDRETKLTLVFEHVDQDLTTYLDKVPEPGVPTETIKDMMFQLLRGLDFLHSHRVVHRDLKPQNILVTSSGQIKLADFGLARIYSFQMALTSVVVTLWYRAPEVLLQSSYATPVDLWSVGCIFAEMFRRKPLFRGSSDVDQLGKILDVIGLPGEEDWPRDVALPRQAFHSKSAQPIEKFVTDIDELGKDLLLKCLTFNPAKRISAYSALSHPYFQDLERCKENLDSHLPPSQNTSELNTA
row,Variant,effect of a mutation on the interaction
1,V31L,with no effect

# Variants of: B2
# Conditions: with TCF12, Q99081-3
# Sequence of TCF12, Q99081-3 (Q99081 other isoform, or with tags, fused parts or gaps): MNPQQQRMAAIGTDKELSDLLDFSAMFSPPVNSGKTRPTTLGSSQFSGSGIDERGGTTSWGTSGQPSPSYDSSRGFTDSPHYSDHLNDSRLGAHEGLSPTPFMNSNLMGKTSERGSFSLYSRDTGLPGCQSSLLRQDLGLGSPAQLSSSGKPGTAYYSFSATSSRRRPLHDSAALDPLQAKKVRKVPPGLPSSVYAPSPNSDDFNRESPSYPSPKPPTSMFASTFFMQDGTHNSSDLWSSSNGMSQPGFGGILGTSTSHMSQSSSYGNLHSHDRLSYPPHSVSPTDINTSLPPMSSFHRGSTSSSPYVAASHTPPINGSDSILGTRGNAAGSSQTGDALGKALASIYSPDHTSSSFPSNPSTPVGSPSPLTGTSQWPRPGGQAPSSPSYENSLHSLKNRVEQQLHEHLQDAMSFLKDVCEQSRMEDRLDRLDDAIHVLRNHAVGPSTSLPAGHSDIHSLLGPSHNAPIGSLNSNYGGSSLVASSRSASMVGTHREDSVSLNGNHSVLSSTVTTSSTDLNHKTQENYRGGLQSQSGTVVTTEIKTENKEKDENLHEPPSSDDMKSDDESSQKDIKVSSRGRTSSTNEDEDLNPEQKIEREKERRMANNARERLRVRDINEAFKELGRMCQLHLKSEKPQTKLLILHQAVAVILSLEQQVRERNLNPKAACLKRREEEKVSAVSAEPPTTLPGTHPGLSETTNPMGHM
row,Variant,effect of a mutation on the interaction
1,V31L,disrupting interaction strength

# Variants of: B2
# Conditions: with NAGK
row,Variant,effect of a mutation on the interaction
1,V31L,disrupting interaction strength

# Variants of: B2
# Conditions: with sahh2_human AHCYL1, O43865
# Sequence of sahh2_human AHCYL1, O43865 (O43865 whole entry): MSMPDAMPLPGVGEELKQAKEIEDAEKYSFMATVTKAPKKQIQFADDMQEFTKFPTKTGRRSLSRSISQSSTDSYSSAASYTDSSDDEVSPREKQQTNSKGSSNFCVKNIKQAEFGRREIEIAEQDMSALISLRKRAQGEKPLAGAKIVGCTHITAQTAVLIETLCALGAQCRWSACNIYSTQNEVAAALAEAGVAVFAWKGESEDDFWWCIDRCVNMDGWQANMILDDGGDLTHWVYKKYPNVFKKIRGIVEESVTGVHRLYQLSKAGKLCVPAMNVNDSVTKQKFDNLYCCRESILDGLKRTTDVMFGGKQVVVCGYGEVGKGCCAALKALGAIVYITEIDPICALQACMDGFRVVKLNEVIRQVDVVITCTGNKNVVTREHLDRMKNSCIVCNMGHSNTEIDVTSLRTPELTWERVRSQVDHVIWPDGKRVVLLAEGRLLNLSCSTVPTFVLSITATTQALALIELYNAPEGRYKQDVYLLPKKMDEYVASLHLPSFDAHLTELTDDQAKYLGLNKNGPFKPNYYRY
row,Variant,effect of a mutation on the interaction
1,V31L,disrupting interaction strength

# Variants of: B2
# Conditions: with TCF4, P15884-3
row,Variant,effect of a mutation on the interaction
1,V31L,disrupting interaction strength

# Variants of: B3
# Conditions: with ikzf3_human IKZF3, Q9UKT9
# Sequence of ikzf3_human IKZF3, Q9UKT9 (Q9UKT9 whole entry): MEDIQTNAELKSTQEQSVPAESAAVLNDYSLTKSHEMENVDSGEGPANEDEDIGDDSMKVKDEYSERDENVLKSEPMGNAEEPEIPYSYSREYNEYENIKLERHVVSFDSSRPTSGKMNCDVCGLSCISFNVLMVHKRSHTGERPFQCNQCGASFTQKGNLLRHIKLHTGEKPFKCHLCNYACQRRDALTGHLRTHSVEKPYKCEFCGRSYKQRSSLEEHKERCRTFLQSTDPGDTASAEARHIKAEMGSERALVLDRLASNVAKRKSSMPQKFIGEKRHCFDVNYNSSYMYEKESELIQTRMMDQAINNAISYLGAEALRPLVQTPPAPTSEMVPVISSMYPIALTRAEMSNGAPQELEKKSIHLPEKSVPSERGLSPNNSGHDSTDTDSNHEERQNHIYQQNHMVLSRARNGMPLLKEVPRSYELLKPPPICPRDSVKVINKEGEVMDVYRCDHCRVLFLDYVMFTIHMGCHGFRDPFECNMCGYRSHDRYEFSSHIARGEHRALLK
row,Variant,effect of a mutation on the interaction
1,F94S,disrupting interaction strength
2,V36M,disrupting interaction strength
3,L69P,disrupting interaction strength

# Variants of: B3
# Conditions: with trip6_human TRIP6, Q15654
# Sequence of trip6_human TRIP6, Q15654 (Q15654 whole entry): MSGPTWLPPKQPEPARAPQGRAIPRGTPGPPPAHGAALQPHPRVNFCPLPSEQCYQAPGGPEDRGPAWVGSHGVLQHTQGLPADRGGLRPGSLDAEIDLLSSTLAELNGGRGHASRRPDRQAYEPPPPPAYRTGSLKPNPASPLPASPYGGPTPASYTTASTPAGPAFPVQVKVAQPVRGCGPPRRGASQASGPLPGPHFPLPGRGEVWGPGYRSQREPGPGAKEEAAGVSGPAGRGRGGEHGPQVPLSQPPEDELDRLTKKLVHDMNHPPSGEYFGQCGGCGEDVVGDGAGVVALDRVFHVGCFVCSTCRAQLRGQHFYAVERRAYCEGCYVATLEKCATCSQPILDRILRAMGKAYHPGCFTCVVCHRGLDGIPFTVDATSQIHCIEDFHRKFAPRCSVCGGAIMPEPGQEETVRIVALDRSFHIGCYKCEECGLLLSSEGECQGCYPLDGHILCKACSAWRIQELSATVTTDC
row,Variant,effect of a mutation on the interaction
1,F94S,disrupting interaction strength
2,V36M,disrupting interaction strength
3,L69P,disrupting interaction strength

# Variants of: B3
# Conditions: with gli1_human GLI1, P08151
# Sequence of gli1_human GLI1, P08151 (P08151 whole entry): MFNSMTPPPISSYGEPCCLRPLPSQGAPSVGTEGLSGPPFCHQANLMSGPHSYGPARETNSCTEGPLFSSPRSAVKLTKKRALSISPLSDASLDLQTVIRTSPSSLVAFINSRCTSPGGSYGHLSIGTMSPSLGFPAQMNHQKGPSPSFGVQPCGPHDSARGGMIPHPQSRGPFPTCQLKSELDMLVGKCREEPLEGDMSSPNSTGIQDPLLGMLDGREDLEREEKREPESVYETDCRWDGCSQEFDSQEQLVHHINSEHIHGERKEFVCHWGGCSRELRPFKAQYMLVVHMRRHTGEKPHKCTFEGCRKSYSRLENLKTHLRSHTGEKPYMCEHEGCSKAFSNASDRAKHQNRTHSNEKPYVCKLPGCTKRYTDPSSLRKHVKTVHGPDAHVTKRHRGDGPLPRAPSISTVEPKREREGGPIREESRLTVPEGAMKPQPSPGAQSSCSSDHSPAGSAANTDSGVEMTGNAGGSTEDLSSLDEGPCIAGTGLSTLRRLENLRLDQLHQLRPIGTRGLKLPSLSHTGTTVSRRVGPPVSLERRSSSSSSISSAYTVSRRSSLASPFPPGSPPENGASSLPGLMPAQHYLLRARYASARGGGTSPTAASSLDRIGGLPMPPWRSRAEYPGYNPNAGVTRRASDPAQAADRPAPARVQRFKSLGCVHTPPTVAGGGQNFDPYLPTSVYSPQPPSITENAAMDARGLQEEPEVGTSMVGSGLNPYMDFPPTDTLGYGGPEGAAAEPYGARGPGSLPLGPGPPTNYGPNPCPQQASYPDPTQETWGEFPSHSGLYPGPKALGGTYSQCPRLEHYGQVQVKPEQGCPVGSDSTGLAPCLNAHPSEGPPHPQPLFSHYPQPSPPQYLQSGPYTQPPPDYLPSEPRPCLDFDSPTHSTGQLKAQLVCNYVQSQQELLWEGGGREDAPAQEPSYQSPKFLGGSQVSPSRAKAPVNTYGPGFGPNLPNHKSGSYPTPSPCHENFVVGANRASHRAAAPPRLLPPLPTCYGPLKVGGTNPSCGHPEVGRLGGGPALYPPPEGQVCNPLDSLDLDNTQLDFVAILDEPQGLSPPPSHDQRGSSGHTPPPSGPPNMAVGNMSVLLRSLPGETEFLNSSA
row,Variant,effect of a mutation on the interaction
1,F94S,disrupting interaction strength
2,V36M,disrupting interaction strength
3,L69P,disrupting interaction strength

# Variants of: B3
# Conditions: with ccd33_human CCDC33, Q8N5R6
# Sequence of ccd33_human CCDC33, Q8N5R6 (Q8N5R6 whole entry): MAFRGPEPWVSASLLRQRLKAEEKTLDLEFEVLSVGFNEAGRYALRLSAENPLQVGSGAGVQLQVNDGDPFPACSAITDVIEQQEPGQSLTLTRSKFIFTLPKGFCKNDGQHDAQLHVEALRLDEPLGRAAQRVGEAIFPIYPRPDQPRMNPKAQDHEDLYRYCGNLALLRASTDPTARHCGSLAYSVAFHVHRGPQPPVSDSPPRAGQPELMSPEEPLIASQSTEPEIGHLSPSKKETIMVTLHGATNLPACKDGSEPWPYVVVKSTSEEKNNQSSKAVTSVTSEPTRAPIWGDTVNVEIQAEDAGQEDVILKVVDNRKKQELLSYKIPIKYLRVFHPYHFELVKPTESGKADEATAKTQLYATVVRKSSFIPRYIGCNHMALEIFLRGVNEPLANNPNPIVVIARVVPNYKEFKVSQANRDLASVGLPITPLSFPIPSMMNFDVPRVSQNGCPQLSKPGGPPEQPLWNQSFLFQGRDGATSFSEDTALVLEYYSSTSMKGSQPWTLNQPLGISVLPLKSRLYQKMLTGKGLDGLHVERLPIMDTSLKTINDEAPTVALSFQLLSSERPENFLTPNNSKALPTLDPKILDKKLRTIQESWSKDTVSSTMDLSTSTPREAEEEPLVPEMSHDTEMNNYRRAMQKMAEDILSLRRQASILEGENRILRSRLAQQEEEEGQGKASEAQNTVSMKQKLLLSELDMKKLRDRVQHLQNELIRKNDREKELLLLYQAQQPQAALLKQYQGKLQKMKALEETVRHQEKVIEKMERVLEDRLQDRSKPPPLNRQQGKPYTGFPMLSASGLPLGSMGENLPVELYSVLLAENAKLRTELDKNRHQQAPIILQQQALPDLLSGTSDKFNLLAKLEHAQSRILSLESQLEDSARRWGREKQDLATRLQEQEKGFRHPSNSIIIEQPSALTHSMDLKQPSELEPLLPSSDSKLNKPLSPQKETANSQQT
row,Variant,effect of a mutation on the interaction
1,F94S,disrupting interaction strength
2,V36M,disrupting interaction strength
3,L69P,disrupting interaction strength

# Variants of: B4
# Conditions: with krt38_human KRT38, O76015
row,Variant,effect of a mutation on the interaction
1,L484P,with no effect
